Reference: EP4491631A1 (Anaveon AG, dated 2025)

T1: IL-2R CD122-CD132 on Jurkat-PD1+ CD122+ cells (UniProt P14784 27-551; P31785 23-369)
T1 sequence (looked up) 1: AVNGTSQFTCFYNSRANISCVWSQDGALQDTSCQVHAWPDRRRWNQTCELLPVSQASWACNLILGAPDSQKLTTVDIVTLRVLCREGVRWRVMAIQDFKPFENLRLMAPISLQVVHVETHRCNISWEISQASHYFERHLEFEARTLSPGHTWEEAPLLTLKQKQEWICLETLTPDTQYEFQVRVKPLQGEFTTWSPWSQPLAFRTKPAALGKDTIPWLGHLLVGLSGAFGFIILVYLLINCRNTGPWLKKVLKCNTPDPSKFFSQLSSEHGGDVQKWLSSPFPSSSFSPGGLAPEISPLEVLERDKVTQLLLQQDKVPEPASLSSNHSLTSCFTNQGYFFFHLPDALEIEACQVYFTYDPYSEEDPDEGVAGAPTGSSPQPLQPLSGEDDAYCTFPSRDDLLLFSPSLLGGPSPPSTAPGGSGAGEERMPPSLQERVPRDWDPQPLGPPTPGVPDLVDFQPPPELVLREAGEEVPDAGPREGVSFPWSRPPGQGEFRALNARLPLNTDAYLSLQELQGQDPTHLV
T1 sequence (looked up) 2: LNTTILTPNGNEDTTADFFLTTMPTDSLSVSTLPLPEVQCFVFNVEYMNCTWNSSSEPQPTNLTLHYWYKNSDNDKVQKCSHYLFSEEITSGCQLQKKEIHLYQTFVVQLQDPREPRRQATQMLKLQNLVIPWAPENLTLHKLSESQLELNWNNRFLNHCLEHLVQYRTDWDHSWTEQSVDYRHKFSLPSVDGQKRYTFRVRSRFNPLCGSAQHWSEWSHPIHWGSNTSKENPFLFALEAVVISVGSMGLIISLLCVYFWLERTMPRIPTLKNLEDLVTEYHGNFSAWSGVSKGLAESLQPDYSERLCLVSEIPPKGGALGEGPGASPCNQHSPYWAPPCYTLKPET

B1: LTJ498 (bispecific antibody, human IgG1, lambda, L234A L235A)
chain 1: EVQLLESGGGLVQPGGSLRLSCAASGFTFSINAMTWVRQAPGKGLEWVSTISGSGFSTYYADSLKGRFTISRDNSKNTLYLQMNSLRAEDTAVYYCAKEVYGDYWGQGTLVTVSSASTKGPSVFPLAPSSKSTSGGTAALGCLVKDYFPEPVTVSWNSGALTSGVHTFPAVLQSSGLYSLSSVVTVPSSSLGTQTYICNVNHKPSNTKVDKRVEPKSCDKTHTCPPCPAPEAAGGPSVFLFPPKPKDTLMISRTPEVTCVVVDVSHEDPEVKFNWYVDGVEVHNAKTKPREEQYNSTYRVVSVLTVLHQDWLNGKEYKCKVSNKALAAPIEKTISKAKGQPREPQVYTLPPSREEMTKNQVSLTCLVKGFYPSDIAVEWESNGQPENNYKTTPPVLDSDGSFFLTSKLTVDKSRWQQGNVFSCSVMHEALHNHYTQKSLSLSPGK
chain 2: not shown
chain 3: AIRLTQSPSSFSASTGDRVTITCKASQSVDYGGGNFHLRPRDLISNINVIVLELKGSETTFMCEYADETATIVEFLNRWITFSQSIISTLTPTSSSTKKTQLQLEHLLLDLQMILNGINNYKNPKLTRMLTFKFYMPKKATELKHLQCLEEELKPLEEVLNLAQSKGGGGDSYMNWYQQKPGKAPKLLIYAASNLESGVPSRFSGSGSGTDFTLTISSLQSEDFATYYCQQSNEDPYTFGGGTKVEIKGGGGSGGGGSGGGGSEVQLVQSGAEVKKPGESLKISCKGSGYAFTNYLIEWVRQMPGKGLEWMGVINPGSGGTNYNEKFKGQVTISADKSISTAYLQWSSLKASDTAMYYCARWRGEGYYAYFDVWGQGTTVTVSSGGGGSGGGGSEVQLLESGGGLVQPGGSLRLSCAASGFTFSINAMTWVRQAPGKGLEWVSTISGSGFSTYYADSLKGRFTISRDNSKNTLYLQMNSLRAEDTAVYYCAKEVYGDYWGQGTLVTVSSASTKGPSVFPLAPSSKSTSGGTAALGCLVKDYFPEPVTVSWNSGALTSGVHTFPAVLQSSGLYSLSSVVTVPSSSLGTQTYICNVNHKPSNTKVDKRVEPKSCDKTHTCPPCPAPEAAGGPSVFLFPPKPKDTLMISRTPEVTCVVVDVSHEDPEVKFNWYVDGVEVHNAKTKPREEQYNSTYRVVSVLTVLHQDWLNGKEYKCKVSNKALAAPIEKTISKAKGQPREPQVYTLPPSREEMTKNQVSLYCLVKGFYPSDIAVEWESNGQPENNYKTTPPVLDSDGSFFLYSKLTVDKSRWQQGNVFSCSVMHEALHNHYTQKSLSLSPGK
B2: XWY176 (bispecific antibody, human IgG1, kappa, lambda, L234A L235A)
chain 1: B1 chain 1
chain 2: not shown
chain 3: EVQLVQSGAEVKKPGESLKISCKGSGYAFTNYLIEWVRQMPGKGLEWMGVINPGSGGTNYNEKFKGQVTISADKSISTAYLQWSSLKASDTAMYYCARWRGEGYYAYFDVWGQGTTVTVSSASTKGPSVFPLAPSSKSTSGGTAALGCLVKDYFPEPVTVSWNSGALTSGVHTFPAVLQSSGLYSLSSVVTVPSSSLGTQTYICNVNHKPSNTKVDKRVEPKSCDKTHTCPPCPAPEAAGGPSVFLFPPKPKDTLMISRTPEVTCVVVDVSHEDPEVKFNWYVDGVEVHNAKTKPREEQYNSTYRVVSVLTVLHQDWLNGKEYKCKVSNKALAAPIEKTISKAKGQPREPQVYTLPPSREEMTKNQVSLYCLVKGFYPSDIAVEWESNGQPENNYKTTPPVLDSDGSFFLYSKLTVDKSRWQQGNVFSCSVMHEALHNHYTQKSLSLSPGK
chain 4: not shown
B3: z5-XVT458 (antibody, human IgG1, kappa, V domains shown)
VH: QVQLVQSGAEVKKPGASVKVSCKASGYTFTNFYIHWVRQAPGQGLEWMGSIYPNYGDTAYNQKFKDRATMTTDKSTSTAYMELRSLRSDDTAVYYCARGYSYAMDYWGQGTTVTVSS
VL: DIQMTQSPSSVSASVGDRVTITCSASQGISGDLNWYQQKPGKAPKLLIYHTSSLHSGVPSRFSGSGSGTDFTLTISSLQPEDFATYYCQYYSKDLLTFGGGTKLEIKR
notes: full hIgG1 format

What was measured:
[1] = molecular target: T1, IL-2R CD122-CD132 on Jurkat-PD1+ CD122+ …; assay: cell-based or functional assay
[2] = molecular target: T2, cynoPD-1 His (AcroBiosystems PD1-C5223) (cynomolgus monkey, UniProt B0LAJ3 25-170); assay: SPR, antibody captured
T2 construct: also called cPD-1
T2 sequence (B0LAJ3 entry or part of it limits assumed, form in doubt): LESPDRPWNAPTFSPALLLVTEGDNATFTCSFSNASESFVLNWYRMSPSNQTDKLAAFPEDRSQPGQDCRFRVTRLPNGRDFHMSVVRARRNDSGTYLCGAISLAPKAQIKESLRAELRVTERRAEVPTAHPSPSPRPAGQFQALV

Row | Binder | EC50 value for pSTAT5 induction [1] [nM] | koff [2] [s⁻¹]
1 | B1 | 0.24 | 
2 | B2 | 0.27 | 
3 | B3 |  | 0.00338
